Where “and” joins values, the source holds several entries; their conditions need not be identical. Identical values can stand only once.
Experiments:
[1] = target: horse serum butyrylcholinesterase (horse); assay: native gel or EMSA
[2] = target: horse serum butyrylcholinesterase (horse); assay: native gel or EMSA; remark: listed apart in the source
[3] = target: horse serum butyrylcholinesterase (horse); assay: SDS-PAGE without reducing agent

horse serum butyrylcholinesterase (enzyme)
stoichiometry N [1]: 2 and 4
stoichiometry N [2]: 4
stoichiometry N [3]: 2

Source: paper PMC3463765
